US9260483B2, “Triazacyclononane-based phosphinate ligand and its use for molecular imaging” (TECHNISCHE UNIVERSITÄT MÜNCHEN, priority 2011, dated 2016)
Read-outs that look alike come from different tables or passages of the source.

Experiments:
in vivo = assay: in vivo; parameters: species or system mice; conditions: CD-1 athymic nude, mouse, total radioactivity
Procedure: Biodistribution of ^68Ga-R3PEG4P9
Biodistribution studies were performed using CD-1 athymic nude mice bearing human melanoma xenografts on both shoulders (right: M21 cell line with high αvβ3 integrin xexpression, left: M21L cell line with low αvβ3 integrin expression). The mice were injected 6-9 MBq of ^68Ga-R3PEG4P9 (specific activity: ca. 900 GBq/μmol, corresponding to approx. 7-10 pmol of the tracer). After the specified time points (60 and 120 min, respectively), the mice were sacrificed, the organs taken out and counted in a gamma counter. For blockade, the mice were administered 200 μg (approx. 10 mg/kg) of unlabeled R3PEG4P9 10 min before tracer injection.
Data is visualized in the chart (FIG. 3).

[1] = system: CD-1 athymic nude mice bearing human melanoma xenografts; conditions: mouse
αvβ3 integrin = molecular target: T1, αvβ3 integrin (Homo sapiens, UniProt P05106+P06756); assay: In vitro binding assay: displacement of 125I-echistatin on M21 human melanoma cells; conditions: log IC50
T1 construct: endogenous in cells; host or cells: M21 human melanoma cells

[2] = Log P determination: octanol-water partition coefficient (1-octanol/PBS) of the labelled compound
Procedure: Octanol-water partition coefficients were determined by addition of ca. 50 kBq of the respective labelled compound to Eppendorf cup containing each 500 μl of 1-octanol and isotonic phosphate buffered saline (PBS). After 2 min of vigorous stirring, the phases were separated by centrifugation, 100 μl aliquots of each phase taken out and the activity contained determined with a gamma counter. Each experiment was repeated 5-8 times.

T1 sequence (P06756 31-889 limits assumed): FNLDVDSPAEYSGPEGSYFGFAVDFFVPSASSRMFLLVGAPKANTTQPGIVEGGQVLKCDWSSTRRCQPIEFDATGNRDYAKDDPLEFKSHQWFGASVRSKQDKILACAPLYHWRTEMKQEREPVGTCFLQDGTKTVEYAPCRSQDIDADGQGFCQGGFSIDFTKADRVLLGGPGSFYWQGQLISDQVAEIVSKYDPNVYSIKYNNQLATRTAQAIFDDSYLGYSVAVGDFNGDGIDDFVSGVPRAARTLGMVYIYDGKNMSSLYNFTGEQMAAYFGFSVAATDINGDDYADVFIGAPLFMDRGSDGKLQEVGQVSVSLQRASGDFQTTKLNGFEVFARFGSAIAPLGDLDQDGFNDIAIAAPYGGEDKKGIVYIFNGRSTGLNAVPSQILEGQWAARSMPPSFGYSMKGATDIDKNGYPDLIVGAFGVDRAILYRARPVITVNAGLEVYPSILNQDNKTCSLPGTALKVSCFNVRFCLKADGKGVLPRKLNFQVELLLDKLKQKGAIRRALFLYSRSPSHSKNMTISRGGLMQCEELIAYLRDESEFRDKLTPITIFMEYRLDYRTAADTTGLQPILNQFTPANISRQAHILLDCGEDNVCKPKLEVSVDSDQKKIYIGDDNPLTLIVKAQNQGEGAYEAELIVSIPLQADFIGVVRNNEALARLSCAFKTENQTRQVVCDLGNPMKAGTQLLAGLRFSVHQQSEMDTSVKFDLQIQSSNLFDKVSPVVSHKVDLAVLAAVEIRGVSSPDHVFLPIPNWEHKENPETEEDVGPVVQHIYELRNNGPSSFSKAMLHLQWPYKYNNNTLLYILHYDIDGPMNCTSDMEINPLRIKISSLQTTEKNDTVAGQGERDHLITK
T1 sequence (P06756 891-1048 partner limits assumed): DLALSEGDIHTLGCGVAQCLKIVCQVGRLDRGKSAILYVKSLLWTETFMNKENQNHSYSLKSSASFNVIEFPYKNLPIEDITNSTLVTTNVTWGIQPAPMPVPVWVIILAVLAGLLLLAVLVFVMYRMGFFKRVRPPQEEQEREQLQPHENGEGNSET
T1 sequence (P05106 27-788): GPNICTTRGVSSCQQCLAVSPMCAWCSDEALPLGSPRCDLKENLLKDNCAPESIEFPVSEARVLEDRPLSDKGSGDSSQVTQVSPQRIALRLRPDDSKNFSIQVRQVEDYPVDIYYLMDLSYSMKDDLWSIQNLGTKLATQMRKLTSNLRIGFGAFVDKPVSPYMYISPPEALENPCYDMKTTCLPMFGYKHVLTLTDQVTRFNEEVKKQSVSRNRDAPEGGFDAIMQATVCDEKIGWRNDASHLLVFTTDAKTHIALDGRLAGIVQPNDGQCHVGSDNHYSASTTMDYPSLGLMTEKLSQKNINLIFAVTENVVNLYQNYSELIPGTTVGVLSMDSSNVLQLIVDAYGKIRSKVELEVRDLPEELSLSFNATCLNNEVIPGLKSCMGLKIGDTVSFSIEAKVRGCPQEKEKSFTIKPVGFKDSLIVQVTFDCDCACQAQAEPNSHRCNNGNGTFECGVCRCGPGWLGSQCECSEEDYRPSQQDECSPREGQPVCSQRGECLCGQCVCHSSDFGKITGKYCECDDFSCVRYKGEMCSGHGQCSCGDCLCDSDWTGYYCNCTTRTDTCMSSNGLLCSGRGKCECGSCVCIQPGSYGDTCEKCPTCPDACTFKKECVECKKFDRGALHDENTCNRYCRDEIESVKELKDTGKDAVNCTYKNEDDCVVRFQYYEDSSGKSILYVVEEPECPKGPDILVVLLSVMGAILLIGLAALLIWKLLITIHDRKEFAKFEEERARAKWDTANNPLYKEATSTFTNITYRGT

## N=C(N)NCCC[C@@H]1NC(=O)[C@H](CCCCNC(=O)CCOCCOCCOCCOCCNC(=O)CCP(=O)(O)CN2CCN(CP(=O)(O)CCC(=O)NCCOCCOCCOCCOCCC(=O)NCCCC[C@@H]3NC(=O)[C@@H](Cc4ccccc4)NC(=O)[C@H](CC(=O)O)NC(=O)CNC(=O)[C@H](CCCNC(=N)N)NC3=O)CCN(CP(=O)(O)CCC(=O)NCCOCCOCCOCCOCCC(=O)NCCCC[C@@H]3NC(=O)[C@@H](Cc4ccccc4)NC(=O)[C@H](CC(=O)O)NC(=O)CNC(=O)[C@H](CCCNC(=N)N)NC3=O)CC2)NC(=O)[C@@H](Cc2ccccc2)NC(=O)[C@H](CC(=O)O)NC(=O)CNC1=O (single isomer, unassigned) [68Ga-R3PEG4P9, metal not drawn]
In vivo; adrenal gland, 60 min, blocked, read-out: uptake % ID/g, adrenal gland
  tissue uptake at 1 h: 0.36 %ID/g
In vivo; adrenal gland, 60 min, read-out: uptake % ID/g, adrenal gland
  tissue uptake at 1 h: 27.8 %ID/g
In vivo; adrenal gland, 120 min, read-out: uptake % ID/g, adrenal gland
  tissue uptake at 2 h: 24.2 %ID/g
In vivo; blood, 60 min, blocked (200 μg unlabeled R3PEG4P9 10 min before), read-out: uptake % ID/g, blood
  tissue uptake at 1 h: 0.09 %ID/g
In vivo; blood, 60 min after tracer injection, read-out: uptake % ID/g, blood
  tissue uptake at 1 h: 0.31 %ID/g
In vivo; blood, 120 min after tracer injection, read-out: uptake % ID/g, blood
  tissue uptake at 2 h: 0.16 %ID/g
In vivo; heart, 60 min, blocked, read-out: uptake % ID/g, heart
  tissue uptake at 1 h: 0.08 %ID/g
In vivo; heart, 60 min, read-out: uptake % ID/g, heart
  tissue uptake at 1 h: 1.29 %ID/g
In vivo; heart, 120 min, read-out: uptake % ID/g, heart
  tissue uptake at 2 h: 1.47 %ID/g
In vivo; kidneys, 60 min, blocked, read-out: uptake % ID/g, kidneys
  tissue uptake at 1 h: 1.97 %ID/g
In vivo; kidneys, 60 min, read-out: uptake % ID/g, kidneys
  tissue uptake at 1 h: 10.2 %ID/g
In vivo; kidneys, 120 min, read-out: uptake % ID/g, kidneys
  tissue uptake at 2 h: 8.63 %ID/g
In vivo; large int., 60 min, blocked, read-out: uptake % ID/g, large int.
  tissue uptake at 1 h: 0.11 %ID/g
In vivo; large int., 60 min, read-out: uptake % ID/g, large int.
  tissue uptake at 1 h: 2.44 %ID/g
In vivo; large int., 120 min, read-out: uptake % ID/g, large int.
  tissue uptake at 2 h: 2.27 %ID/g
In vivo; liver, 60 min, blocked, read-out: uptake % ID/g, liver
  tissue uptake at 1 h: 0.32 %ID/g
In vivo; liver, 60 min, read-out: uptake % ID/g, liver
  tissue uptake at 1 h: 5.18 %ID/g
In vivo; liver, 120 min, read-out: uptake % ID/g, liver
  tissue uptake at 2 h: 3.97 %ID/g
In vivo; lung, 60 min, blocked, read-out: uptake % ID/g, lung
  tissue uptake at 1 h: 0.54 %ID/g
In vivo; lung, 60 min, read-out: uptake % ID/g, lung
  tissue uptake at 1 h: 2.96 %ID/g
In vivo; lung, 120 min, read-out: uptake % ID/g, lung
  tissue uptake at 2 h: 2.15 %ID/g
In vivo; muscle, 60 min, blocked, read-out: uptake % ID/g, muscle
  tissue uptake at 1 h: 0.05 %ID/g
In vivo; muscle, 60 min, read-out: uptake % ID/g, muscle
  tissue uptake at 1 h: 0.95 %ID/g
In vivo; muscle, 120 min, read-out: uptake % ID/g, muscle
  tissue uptake at 2 h: 0.67 %ID/g
In vivo; pancreas, 60 min, blocked, read-out: uptake % ID/g, pancreas
  tissue uptake at 1 h: 0.07 %ID/g
In vivo; pancreas, 60 min, read-out: uptake % ID/g, pancreas
  tissue uptake at 1 h: 0.88 %ID/g
In vivo; pancreas, 120 min, read-out: uptake % ID/g, pancreas
  tissue uptake at 2 h: 0.81 %ID/g
In vivo; small int., 60 min, blocked, read-out: uptake % ID/g, small int.
  tissue uptake at 1 h: 0.24 %ID/g
In vivo; small int., 60 min, read-out: uptake % ID/g, small int.
  tissue uptake at 1 h: 4.92 %ID/g
In vivo; small int., 120 min, read-out: uptake % ID/g, small int.
  tissue uptake at 2 h: 3.75 %ID/g
In vivo; spleen, 60 min, blocked, read-out: uptake % ID/g, spleen
  tissue uptake at 1 h: 0.24 %ID/g
In vivo; spleen, 60 min, read-out: uptake % ID/g, spleen
  tissue uptake at 1 h: 3.38 %ID/g
In vivo; spleen, 120 min, read-out: uptake % ID/g, spleen
  tissue uptake at 2 h: 3.5 %ID/g
In vivo; stomach, 60 min, blocked, read-out: uptake % ID/g, stomach
  tissue uptake at 1 h: 0.17 %ID/g
In vivo; stomach, 60 min, read-out: uptake % ID/g, stomach
  tissue uptake at 1 h: 4.43 %ID/g
In vivo; stomach, 120 min, read-out: uptake % ID/g, stomach
  tissue uptake at 2 h: 3.56 %ID/g
In vivo; thyroid, 60 min, blocked, read-out: uptake % ID/g, thyroid
  tissue uptake at 1 h: 0.17 %ID/g
In vivo; thyroid, 60 min, read-out: uptake % ID/g, thyroid
  tissue uptake at 1 h: 3.27 %ID/g
In vivo; thyroid, 120 min, read-out: uptake % ID/g, thyroid
  tissue uptake at 2 h: 2.89 %ID/g
In vivo; tumor M21 (high αvβ3), 60 min, blocked, read-out: uptake % ID/g, tumor M21
  tissue uptake at 1 h: 0.62 %ID/g
In vivo; tumor M21 (high αvβ3), 60 min, read-out: uptake % ID/g, tumor M21
  tissue uptake at 1 h: 6.08 %ID/g
In vivo; tumor M21 (high αvβ3), 120 min, read-out: uptake % ID/g, tumor M21
  tissue uptake at 2 h: 4.63 %ID/g
In vivo; tumor M21L (low αvβ3), 60 min, blocked, read-out: uptake % ID/g, tumor M21L
  tissue uptake at 1 h: 0.31 %ID/g
In vivo; tumor M21L (low αvβ3), 60 min, read-out: uptake % ID/g, tumor M21L
  tissue uptake at 1 h: 1.48 %ID/g
In vivo; tumor M21L (low αvβ3), 120 min, read-out: uptake % ID/g, tumor M21L
  tissue uptake at 2 h: 1.7 %ID/g
[1]; in vivo
  fraction of the blood activity in the plasma after centrifugation: 96%
  metabolites in tissue extracts, plasma and urine (radio-HPLC): no metabolites could be detected

## N=C(N)NCCC[C@@H]1NC(=O)[C@H](CCCCNC(=O)CCOCCOCCOCCOCCNC(=O)CCP(=O)(O)CN2CCN(CP(=O)(O)CCC(=O)NCCOCCOCCOCCOCCC(=O)NCCCC[C@@H]3NC(=O)[C@H](Cc4ccccc4)NC(=O)[C@H](CC(=O)O)NC(=O)CNC(=O)[C@H](CCCNC(=N)N)NC3=O)CCN(CP(=O)(O)CCC(=O)NCCOCCOCCOCCOCCC(=O)NCCCC[C@@H]3NC(=O)[C@@H](Cc4ccccc4)NC(=O)[C@@H](CC(=O)O)NC(=O)CNC(=O)[C@@H](CCCNC(=N)N)NC3=O)CC2)NC(=O)[C@H](Cc2ccccc2)NC(=O)[C@H](CC(=O)O)NC(=O)CNC1=O [Compound R3PEG4P9]
αvβ3 integrin
  IC50: 42.7 nM
[1]
  stability in vivo (analysis of metabolites): fully stable in vivo

## N=C(N)NCCC[C@@H]1NC(=O)[C@H](CCCCNC(=O)CCOCCOCCOCCOCCOCCOCCOCCOCCNC(=O)CCP(=O)(O)CN2CCN(CP(=O)(O)CCC(=O)NCCOCCOCCOCCOCCOCCOCCOCCOCCC(=O)NCCCC[C@@H]3NC(=O)[C@@H](Cc4ccccc4)NC(=O)[C@H](CC(=O)O)NC(=O)CNC(=O)[C@H](CCCNC(=N)N)NC3=O)CCN(CP(=O)(O)CCC(=O)NCCOCCOCCOCCOCCOCCOCCOCCOCCC(=O)NCCCC[C@@H]3NC(=O)[C@@H](Cc4ccccc4)NC(=O)[C@H](CC(=O)O)NC(=O)CNC(=O)[C@H](CCCNC(=N)N)NC3=O)CC2)NC(=O)[C@@H](Cc2ccccc2)NC(=O)[C@H](CC(=O)O)NC(=O)CNC1=O [Ga-R3PEG8P9]
[2]
  logP: -4.13 ± 0.16
